One data set concerns Lip. Conditions: optimal pH 9.0, 40 °C; substrate not named, taken as pNPA (best substrate).
In data set [1] the test system is CC(=O)Oc1ccc([N+](=O)[O-])cc1. The data set is described as follows: purified protein. The settings on record: optimal pH 8.5, 40 °C, substrate not named, taken as pNPA (best substrate).

On to `CC(=O)Oc1ccc([N+](=O)[O-])cc1` [C2, p-nitrophenyl acetate], for which, in the data set on Lip, the Km was 363 ± 30 µM.

For Lip (Enterobacter cloacae), in data set [1], the Km came to 643 ± 30 µM, the kcat is 9.8 ± 0.09 s⁻¹ and the kcat/Km came out at 15200 ± 210 M⁻¹ s⁻¹.

One may read the Km as the substrate concentration at which the rate is half of its maximum. As usually defined, the kcat is the maximal rate divided by the concentration of active sites. As usually defined, the kcat/Km is the second-order rate constant that governs catalysis at low substrate concentration.
